From patent publication US10808017B2, “Ubiquitin variants and uses therof as 53BP1 inhibitors” (The Governing Council of the University of Toronto, priority 2016, dated 2020)

Target: T1, 53BP1 (Homo sapiens, UniProt Q12888)
T1 construct: endogenous in cells; host or cells: 293T
Assay: Flag co-immunoprecipitation from 293T cells
Assay type: binding
Settings: Flag IP from transfected 293T cell extracts, immunoblot
Protocol: FIG. 3. The i53 protein inhibits 53BP1. FIG. 3A-B, U2OS cells were transfected with vectors expressing i53, its 53BP1-binding deficient mutant (DM) or an empty vector (EV) control. Cells were then X-irradiated with a 10 Gy dose and processed for immunofluorescence with the indicated antibodies 1 h post-irradiation (IR). DAPI staining (not shown) was used to delineate the outline (dashed lines) of the cell nuclei. The region in the magnified inset is indicated with a square. Quantitation of the experiment is shown in panel (a) and data is indicated as the mean±s.e.m (N=3), whereas in (b) representative micrographs are shown. Arrowheads indicate Flag-positive cells. FIG. 3C, Parental or 53BP1ΔU2OS cells transfected with vectors expressing i53, the DM mutant or an empty vector (EV) control were irradiated (10 Gy) 1 h before being processed for immunofluorescence. Cell cycle stage was assessed by Cyclin A staining. The data is presented as the mean±s.e.m.; N=3. FIG. 3D, Immunoprecipitation (IP) of Flag-tagged proteins from extracts prepared from 293T cells transfected with vectors expressing Flag-i53 or the i53-DM mutant. Proteins were separated by SDS-PAGE and immunoblotted (IB) for Flag and 53BP1.
293T cells were transfected with 10 μg of pcDNA3-Flag-i53-derived plasmids using polyethylenimine (PEI). […]

T1 sequence (Q12888 whole entry): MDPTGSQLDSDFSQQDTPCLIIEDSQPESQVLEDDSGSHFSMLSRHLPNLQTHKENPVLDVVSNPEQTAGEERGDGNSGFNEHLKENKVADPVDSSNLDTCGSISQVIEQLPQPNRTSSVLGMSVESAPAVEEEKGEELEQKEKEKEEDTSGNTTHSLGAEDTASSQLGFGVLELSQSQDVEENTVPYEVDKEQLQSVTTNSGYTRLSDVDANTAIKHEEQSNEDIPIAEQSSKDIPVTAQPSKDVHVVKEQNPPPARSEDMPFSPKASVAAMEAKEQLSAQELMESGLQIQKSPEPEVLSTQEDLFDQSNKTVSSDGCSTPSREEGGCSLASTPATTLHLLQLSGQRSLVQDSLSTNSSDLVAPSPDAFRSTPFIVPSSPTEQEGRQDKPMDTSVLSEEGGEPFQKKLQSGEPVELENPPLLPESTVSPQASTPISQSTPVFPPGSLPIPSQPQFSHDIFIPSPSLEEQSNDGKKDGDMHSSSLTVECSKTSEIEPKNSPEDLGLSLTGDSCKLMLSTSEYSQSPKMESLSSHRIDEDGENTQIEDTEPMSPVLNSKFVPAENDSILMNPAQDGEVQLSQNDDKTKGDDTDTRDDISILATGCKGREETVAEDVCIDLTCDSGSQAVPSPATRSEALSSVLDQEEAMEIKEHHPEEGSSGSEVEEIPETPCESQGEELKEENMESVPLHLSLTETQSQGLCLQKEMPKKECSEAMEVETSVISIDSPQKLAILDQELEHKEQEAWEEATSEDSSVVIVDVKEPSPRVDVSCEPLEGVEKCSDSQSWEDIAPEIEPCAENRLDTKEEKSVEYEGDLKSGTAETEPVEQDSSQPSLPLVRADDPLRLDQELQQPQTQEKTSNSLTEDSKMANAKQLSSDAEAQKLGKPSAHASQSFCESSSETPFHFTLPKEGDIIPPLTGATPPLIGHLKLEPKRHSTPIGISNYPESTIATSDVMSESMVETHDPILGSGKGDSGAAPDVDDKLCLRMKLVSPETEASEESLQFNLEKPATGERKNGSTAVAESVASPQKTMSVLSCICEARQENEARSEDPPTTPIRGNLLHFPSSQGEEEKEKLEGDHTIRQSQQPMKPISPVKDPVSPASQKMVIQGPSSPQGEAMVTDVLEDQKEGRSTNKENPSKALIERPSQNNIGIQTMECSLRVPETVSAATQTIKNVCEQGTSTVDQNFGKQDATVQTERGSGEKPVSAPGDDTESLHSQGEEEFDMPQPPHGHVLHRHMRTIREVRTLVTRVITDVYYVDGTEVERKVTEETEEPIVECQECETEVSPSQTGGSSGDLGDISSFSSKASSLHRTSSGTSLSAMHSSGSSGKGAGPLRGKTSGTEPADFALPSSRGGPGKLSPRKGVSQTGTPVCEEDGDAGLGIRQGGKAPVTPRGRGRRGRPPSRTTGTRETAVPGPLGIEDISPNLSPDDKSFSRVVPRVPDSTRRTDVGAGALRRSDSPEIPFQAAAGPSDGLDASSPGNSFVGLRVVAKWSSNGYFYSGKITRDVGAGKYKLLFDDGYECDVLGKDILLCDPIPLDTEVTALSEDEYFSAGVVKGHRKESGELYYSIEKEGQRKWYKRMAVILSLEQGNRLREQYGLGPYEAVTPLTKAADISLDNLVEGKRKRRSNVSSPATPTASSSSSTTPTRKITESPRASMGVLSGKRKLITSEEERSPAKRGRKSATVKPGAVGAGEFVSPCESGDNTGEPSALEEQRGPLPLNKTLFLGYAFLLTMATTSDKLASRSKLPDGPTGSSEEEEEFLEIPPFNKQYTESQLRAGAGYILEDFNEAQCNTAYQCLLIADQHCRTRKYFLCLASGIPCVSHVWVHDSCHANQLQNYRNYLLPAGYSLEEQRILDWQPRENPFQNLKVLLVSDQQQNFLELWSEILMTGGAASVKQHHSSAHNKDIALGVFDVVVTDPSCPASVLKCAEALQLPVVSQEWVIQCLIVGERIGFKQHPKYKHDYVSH

## i53: UbvG08 with C-terminal di-glycine removed and I44A mutation; genetically encoded inhibitor of 53BP1
  Retrieval of 53BP1 in co-immunoprecipitation: efficiently retrieved 53BP1
